Each binder was assayed against HLA-A*2402 (human) (assay: competition with 125I-labelled standard peptide for purified HLA-A*2402, gel filtration). Details: not given.

Point of comparison: KLTNTGLYNL (modifications not checked) [HPV18 E6 92-101 peptide …], relative binding ratio (IC50 of standard peptide / IC50 of test peptide) (ratio to standard peptide) 0.0001. Against it:
- HYSDSVYGDTL (modifications not checked) [HPV18 E6 80-90 peptide …] — higher, 0.0069
- HYCYSLYGTTL (modifications not checked) [HPV16 E6 85 …] — higher, 0.065
- EYRHYCYSL (modifications not checked) [HPV16 E6 82 …] — higher, 0.0051

Point of comparison: HYCYSLYGTTL (modifications not checked) [HPV16 E6 85 …], binding affinity ratio (IC50 of standard peptide / IC50 of test peptide) 0.065. Against it:
- EYRHYCYSL (modifications not checked) [HPV16 E6 82 …] — lower, 0.0051

What follows are binders tested against HLA-A*0201 (human) (assay: competition with 125I-labelled standard peptide on purified HLA, gel filtration). Details: not given.

Point of comparison: VTFCCKCDST (modifications not checked) [HPV16 E7 55 …], binding affinity ratio (IC50 of standard peptide / IC50 of test peptide) 0.0001. Against it:
- TLEDLLMGTL (modifications not checked) — higher, 0.0002
- STLRLCVQST (modifications not checked) [HPV16 E7 63 …] — higher, 0.0012
- YMLDLQPET (modifications not checked) [HPV16 E7 11 …] — higher, 0.14
- TLRLCVQSTHV (modifications not checked) — higher, 0.0006
- TLRLCVQST (modifications not checked) — higher, 0.0061

Same assay, conditions: remark: other sources report otherwise

Binder TLEDLLMGT (modifications not checked) has a binding affinity ratio (IC50 of standard peptide / IC50 of test peptide) of 0.0002.

These binders were tested against HLA-A*1101 (human) (assay: competitive inhibition of 125I-labelled standard peptide binding to purified HLA, gel filtration). Details: not given.

Point of comparison: LILALLRYK (modifications not checked) [HPV18 E1 position 281 peptide …], binding affinity ratio (IC50 of standard peptide / IC50 of test peptide) 0.18. Against it:
- LTTNIHPAK (modifications not checked) [HPV18 E1 position 571 peptide …] — lower, 0.12

What follows are binders tested against HLA-A*0301 (human) in the same assay as above. Details: not given.

Point of comparison: LILALLRYK (modifications not checked) [HPV18 E1 position 281 peptide …], binding affinity ratio (IC50 of standard peptide / IC50 of test peptide) 0.27. Against it:
- LTTNIHPAK (modifications not checked) [HPV18 E1 position 571 peptide …] — lower, 0.091

The binders below were run against HLA-A*0201 (human) (assay: competition with 125I-labeled standard peptide for purified HLA-A*0201, gel filtration). Details: not given.

Point of comparison: KLVVESSADDL (modifications not checked) [HPV18 E7 peptide … (position 73, 11 amino acids)], relative binding ratio (IC50 of standard peptide / IC50 of test peptide) (ratio to standard peptide) 0.0001. Against it:
- GVNHQHLPA (modifications not checked) [HPV18 E7 peptide … (position 43, 9 amino acids)] — the same, 0.0001
- CLDCKWGVLI (modifications not checked) [HPV18 E1 273 peptide …] — higher, 0.0002
- LVVESSADDL (modifications not checked) [HPV18 E7 peptide … (position 74, 10 amino acids)] — the same, 0.0001
- MLCMCCKCEA (modifications not checked) [HPV18 E7 peptide … (position 61, 10 amino acids)] — higher, 0.0016
- FLNTLSFV (modifications not checked) [HPV18 E7 peptide FLNTLSFV (position 90, 8 amino acids)] — higher, 0.0079
- VVESSADDL (modifications not checked) [HPV18 E7 peptide … (position 75, 9 amino acids)] — higher, 0.0003
- HLEPQNEIPV (modifications not checked) [HPV18 E7 peptide … (position 14, 10 amino acids)] — the same, 0.0001
- VLHLEPQNEI (modifications not checked) [HPV18 E7 peptide … (position 12, 10 amino acids)] — the same, 0.0001
- AVFKDTYGL (modifications not checked) [HPV18 E1 216 peptide …] — higher, 0.014
- HLEPQNEI (modifications not checked) [HPV18 E7 peptide HLEPQNEI (position 14, 8 amino acids)] — the same, 0.0001
- RAFQQLFLNT (modifications not checked) [HPV18 E7 peptide … (position 84, 10 amino acids)] — higher, 0.0003
- KLVVESSA (modifications not checked) [HPV18 E7 peptide KLVVESSA (position 73, 8 amino acids)] — the same, 0.0001

The binders below were run against HLA-A*0301 (human) (assay: competition with 125I-labeled standard peptide for purified HLA-A*0301, gel filtration). Details: not given.

Point of comparison: LSFVCPWCA (modifications not checked) [HPV18 E7 94-102 peptide …], relative binding ratio (IC50 of standard peptide / IC50 of test peptide) 0.0005. Against it:
- QLFLNTLSF (modifications not checked) [HPV18 E7 88-96 peptide …] — the same, 0.0005
- RIKLVVESSA (modifications not checked) [HPV18 E7 71-80 peptide …] — the same, 0.0005
- TMLCMCCK (modifications not checked) [HPV18 E7 60-67 peptide TMLCMCCK] — higher, 0.024

Work on QVLHVLKRK (modifications not checked) [HPV18 E1 80-88 peptide …] yielded a binding affinity ratio relative to standard peptide (IC50 standard / IC50 test) of 0.0028.

What follows are binders tested against HLA-A*0301 (human) (assay: competitive inhibition of 125I-labelled standard peptide binding to purified HLA-A*0301, gel filtration). Details: not given.

Point of comparison: YCKQQLLRR (modifications not checked) [HPV16 E6 39 …], relative binding ratio (IC50 of standard peptide / IC50 of test peptide) (ratio to standard peptide) 0.0003. Against it:
- QAEPDRAHY (modifications not checked) [HPV16 E7 44 …] — lower, 0.0002
- FTFPNPFPF (modifications not checked) [HPV31 E1 566 … (A03 motif peptide)] — higher, 0.0008
- CCKCDSTLR (modifications not checked) [HPV16 E7 58 …] — the same, 0.0003
- CVQSTHVDIR (modifications not checked) [HPV16 E7 68 …] — higher, 0.0049

Same assay, conditions: remark: other sources report otherwise

Point of comparison: HGDTPTLHEY (modifications not checked) [HPV16 E7 2 …], relative binding ratio (IC50 of standard peptide / IC50 of test peptide) (ratio to standard peptide) 0.0001. Against it:
- IVCPICSQK (modifications not checked) [HPV16 E7 89 …] — higher, 0.0077
- GIVCPICSQK (modifications not checked) [HPV16 E7 88 …] — higher, 0.0003

Each binder was assayed against HLA-B*5301 (human) (assay: competition with 125I-labelled standard peptide for purified HLA, gel filtration). Details: not given.

For CPEEKQRHL (modifications not checked) [HPV31 E6 111 …], the relative binding ratio (IC50 of standard peptide / IC50 of test peptide) was 0.0006.

Each binder was assayed against HLA-B*5101 (human) in the same assay as above. Details: not given.

CPEEKQRHL (modifications not checked) [HPV31 E6 111 …] showed a relative binding ratio (IC50 of standard peptide / IC50 of test peptide) of 0.0074.

The binders below were run against HLA-A*1101 (human) (assay: competition with 125I-labelled standard peptide on purified HLA-A*1101, gel filtration). Details: not given.

Point of comparison: CMSCCRSSR (modifications not checked) [… (HPV16 E6, position 143, 9 amino acids)], binding affinity ratio (IC50 of standard peptide / IC50 of test peptide) (ratio to standard peptide) 0.0001. Against it:
- CCRSSRTRR (modifications not checked) [… (HPV16 E6, position 146, 9 amino acids)] — the same, 0.0001
- LCPEEKQRH (modifications not checked) [… (HPV16 E6, position 117, 9 amino acids)] — the same, 0.0001
- GNPYAVCDK (modifications not checked) [… (HPV16 E6, position 64, 9 amino acids)] — the same, 0.0001
- AVCDKCLKFY (modifications not checked) [… (HPV16 E6, position 68, 10 amino acids)] — higher, 0.019
- AVCDKCLK (modifications not checked) [AVCDKCLK (HPV16 E6, position 68, 8 amino acids)] — higher, 0.011
- NIRGRWTGR (modifications not checked) [… (HPV16 E6, position 134, 9 amino acids)] — higher, 0.0005

Same assay, conditions: remark: other sources report otherwise

Point of comparison: AMFQDPQER (modifications not checked) [… (HPV16 E6, position 7, 9 amino acids)], binding affinity ratio (IC50 of standard peptide / IC50 of test peptide) (ratio to standard peptide) 0.032. Against it:
- HLDKKQRFH (modifications not checked) [… (HPV16 E6, position 125, 9 amino acids)] — lower, 0.0001
- IVYRDGNPY (modifications not checked) [… (HPV16 E6, position 59, 9 amino acids)] — higher, 0.15

What follows are binders tested against HLA-A*0201 (human) (assay: inhibition of binding of 125I-labelled standard peptide to purified HLA, gel filtration). Details: not given.

Work on MLDLQPETTDL (modifications not checked) [HPV16 E7 peptide … (position 12, 11 amino acids)] yielded a relative binding ratio (IC50 of standard peptide / IC50 of test peptide) of 0.0005.

Same assay, conditions: remark: other sources report otherwise

Point of comparison: MLDLQPETT (modifications not checked) [HPV16 E7 peptide … (position 12, 9 amino acids)], relative binding ratio (IC50 of standard peptide / IC50 of test peptide) 0.0028. Against it:
- RLCVQSTHV (modifications not checked) [HPV16 E7 peptide … (position 66, 9 amino acids)] — lower, 0.0003
- RTLEDLLMGT (modifications not checked) [HPV16 E7 peptide … (position 77, 10 amino acids)] — lower, 0.0006

From patent US7026443
